Experimental findings from US20120316071A1 (published 2012) are described below.

Assay [1] addresses T1, rHuman Notch-1/Fc Chimera, CF (R&D Systems Cat#3647-TK) (human).
T1 chain: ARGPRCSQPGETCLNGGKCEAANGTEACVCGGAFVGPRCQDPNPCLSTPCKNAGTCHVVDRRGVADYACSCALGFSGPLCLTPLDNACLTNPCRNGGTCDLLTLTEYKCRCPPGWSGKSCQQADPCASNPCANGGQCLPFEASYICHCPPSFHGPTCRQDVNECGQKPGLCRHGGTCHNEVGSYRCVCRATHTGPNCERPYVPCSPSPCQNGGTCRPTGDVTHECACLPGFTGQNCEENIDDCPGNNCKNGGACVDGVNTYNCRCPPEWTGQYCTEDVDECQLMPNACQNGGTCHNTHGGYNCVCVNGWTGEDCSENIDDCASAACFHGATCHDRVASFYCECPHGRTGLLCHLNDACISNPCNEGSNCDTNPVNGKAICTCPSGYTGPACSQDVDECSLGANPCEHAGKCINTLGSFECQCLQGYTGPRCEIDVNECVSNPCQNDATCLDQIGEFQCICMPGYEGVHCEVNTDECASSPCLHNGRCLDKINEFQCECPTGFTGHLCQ
In words: ECL multispot (MSD) assay, antigen spotted on plate, Fab in solution; blank spot of this well 338.

The target in assay [2] is T2, rHuman HGF R/c-MET/Fc Chimera, CF (R&D Systems Cat#358-MT/CF) (human, UniProt P08581 25-932). The assay is described as above.
T2 sequence (P08581 25-932, change not shown): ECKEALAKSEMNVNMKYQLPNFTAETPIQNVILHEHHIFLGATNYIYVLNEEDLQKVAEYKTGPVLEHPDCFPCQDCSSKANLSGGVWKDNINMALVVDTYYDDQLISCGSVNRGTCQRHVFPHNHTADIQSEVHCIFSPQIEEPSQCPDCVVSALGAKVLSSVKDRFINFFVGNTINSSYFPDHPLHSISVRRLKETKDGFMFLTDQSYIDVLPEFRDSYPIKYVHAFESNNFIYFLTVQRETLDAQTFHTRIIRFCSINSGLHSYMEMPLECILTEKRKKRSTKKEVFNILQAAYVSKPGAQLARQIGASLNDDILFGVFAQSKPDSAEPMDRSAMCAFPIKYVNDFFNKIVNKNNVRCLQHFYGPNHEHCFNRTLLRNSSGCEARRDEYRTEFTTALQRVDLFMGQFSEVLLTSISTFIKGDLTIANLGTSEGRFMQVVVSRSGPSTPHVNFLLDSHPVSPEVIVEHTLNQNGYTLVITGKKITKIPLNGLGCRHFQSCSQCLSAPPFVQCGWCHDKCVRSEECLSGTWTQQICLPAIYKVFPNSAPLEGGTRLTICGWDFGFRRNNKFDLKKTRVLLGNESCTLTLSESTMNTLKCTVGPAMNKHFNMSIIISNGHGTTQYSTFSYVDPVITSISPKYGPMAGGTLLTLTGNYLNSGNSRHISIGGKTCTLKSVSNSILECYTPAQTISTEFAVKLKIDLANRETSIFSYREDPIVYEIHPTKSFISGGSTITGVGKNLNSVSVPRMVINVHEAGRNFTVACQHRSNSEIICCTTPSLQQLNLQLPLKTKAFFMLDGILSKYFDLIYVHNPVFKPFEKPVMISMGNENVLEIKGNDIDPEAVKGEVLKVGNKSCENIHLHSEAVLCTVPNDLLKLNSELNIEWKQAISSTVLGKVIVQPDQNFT
The target of assay [3] is T3, rHuman P-Cadherin/Fc Chimera, CF (R&D Systems Cat#861-PC) (human, UniProt P22223 108-654). The assay is described as above.
The target of assay [4] is T4, rHuman CD44/Fc Chimera, CF (R&D Systems Cat#3660-CD) (human, UniProt P16070 21-220). The assay is described as above.
Assay [5] concerns the target T5, rHuman Erythropoietin R/Fc Chimera, CF (R&D Systems Cat#963-ER) (human, UniProt P19235 25-250). The description is as above.
Assay [6] addresses T1, rHuman Notch-1/Fc Chimera, CF (R&D …). Description: ECL multispot (MSD) assay, antigen spotted on plate, Fab in solution; blank spot of this well 271.
In assay [7] the target is T2, rHuman HGF R/c-MET/Fc Chimera, CF (R&D …). The description is as above.
Assay [8] deals with T3, rHuman P-Cadherin/Fc Chimera, CF (R&D …). The description is as above.
Assay [9] concerns the target T4, rHuman CD44/Fc Chimera, CF (R&D Systems …). Described as above.
In assay [10] the target is T5, rHuman Erythropoietin R/Fc Chimera, CF …. Described as above.
For assay [11], the target named is T6, Recombinant Human DLL4 (R&D Systems Cat#1506-D4/CF) (human, UniProt Q9NR61 27-524).
T6 construct: Bought recombinant protein; also called delta-like protein 4; rHuman DLL4
The assay is described as above.

Assay [12] has as its target T7, rHuman IGF-1 sR (insulin-like growth factor-1 soluble receptor), CF (R&D Systems Cat#391-GR) (human, UniProt P08069 31-932).
T7 construct: Bought recombinant soluble receptor
Described as above.

T5 sequence (P19235 25-250, change not shown): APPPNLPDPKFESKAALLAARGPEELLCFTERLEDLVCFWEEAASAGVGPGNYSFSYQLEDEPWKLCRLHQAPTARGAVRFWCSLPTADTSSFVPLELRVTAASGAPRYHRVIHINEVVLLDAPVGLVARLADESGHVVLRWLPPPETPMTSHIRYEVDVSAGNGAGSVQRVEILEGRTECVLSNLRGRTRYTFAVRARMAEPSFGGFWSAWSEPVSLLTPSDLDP

B1: Fab VH1-46_IGHD6-6*01_IGHJ1*01 S102A/S103P/S104F (APF) & L6_IGKJ1*01 S92C (Fab, V domains shown)
VH: QVQLVQSGAEVKKPGASVKVSCKASGYTFTSYYMHWVRQAPGQGLEWMGIINPSGGSTSYAQKFQGRVTMTRDTSTSTVYMELSSLRSEDTAVYYCAREEYAPFSAEYFQHWGQGTLVTVSS
VL: EIVLTQSPATLSLSPGERATLSCRASQSVSSYLAWYQQKPGQAPRLLIYDASNRATGIPARFSGSGSGTDFTLTISSLEPEDFAVYYCQQRCNWPPWTFGQGTKVEIKR
notes: Fab made in E. coli (heavy chain in plasmid A with CH1, His6 and Flag tags; kappa light chain in plasmid C); also called APF / S92C
For B1, the ECL signal worked out at 125 in assay [1]; 335 in assay [2]; 265 in assay [3]; 156 in assay [4]; 302 in assay [5].

B2: Fab VH1-46_IGHD6-6*01_IGHJ1*01 S102A/S103P/S104F (APF) & L6_IGKJ1*01 S92N (Fab, V domains shown)
VH: QVQLVQSGAEVKKPGASVKVSCKASGYTFTSYYMHWVRQAPGQGLEWMGIINPSGGSTSYAQKFQGRVTMTRDTSTSTVYMELSSLRSEDTAVYYCAREEYAPFSAEYFQHWGQGTLVTVSS
VL: EIVLTQSPATLSLSPGERATLSCRASQSVSSYLAWYQQKPGQAPRLLIYDASNRATGIPARFSGSGSGTDFTLTISSLEPEDFAVYYCQQRNNWPPWTFGQGTKVEIKR
notes: Fab made in E. coli (heavy chain in plasmid A with CH1, His6 and Flag tags; kappa light chain in plasmid C); also called APF / S92N
Turning to B2, the ECL signal in assay [6] was determined as 193; in assay [7], 405; in [8], 240; in assay [9] it was 316; in assay [10], 304; in assay [11] it was 2090. In assay [12], this molecule showed an ECL signal of 211.
